In article PMC6156121 (Science Advances, 2018):

Target: purified mTOR protein (Origene) (human, UniProt P42345 1-2549)
Experiment: co-IP

B1: purified ETV7 protein (Origene) (natural protein)
chain: MQEGELAISPISPVAAMPPLGTHVQARCEAQINLLGEGGICKLPGRLRIQPALWSREDVLHWLRWAEQEYSLPCTAEHGFEMNGRALCILTKDDFRHRAPSSGDVLYELLQYIKTQRRALVCGPFFGGIFRLKTPTQHSPVPPEEVTGPSQMDTRRGHLLQPPDPGLTSNFGHLDDPGLARWTPGKEESLNLCHCAELGCRTQGVCSFPAMPQAPIDGRIADCRLLWDYVYQLLLDTRYEPYIKWEDKDAKIFRVVDPNGLARLWGNHKNRVNMTYEKMSRALRHYYKLNIIKKEPGQKLLFRFLKTPGKMVQDKHSHLEPLESQEQDRIEFKDKRPEISP
binding result: binds
